The record followed here is patent CN114075291A (THE FIRST AFFILIATED HOSPITAL OF NAVAL MEDICAL UNIV OF …, dated 2022).

For the assay, the target named is T1, 人PSMA抗原 (前列腺特异性膜抗原, prostrate specific membrane antigen) (human, UniProt Q04609 1-750).
T1 construct: whole, on cells; it is treated here as the same protein; also called PSMA蛋白
As to the kind of experiment: FACS, scFv culture supernatant on 293T-PSMA cells, APC anti 6XHis secondary. In general terms: A flow cytometer gives signals particle by particle.

T1 sequence (Q04609 whole entry): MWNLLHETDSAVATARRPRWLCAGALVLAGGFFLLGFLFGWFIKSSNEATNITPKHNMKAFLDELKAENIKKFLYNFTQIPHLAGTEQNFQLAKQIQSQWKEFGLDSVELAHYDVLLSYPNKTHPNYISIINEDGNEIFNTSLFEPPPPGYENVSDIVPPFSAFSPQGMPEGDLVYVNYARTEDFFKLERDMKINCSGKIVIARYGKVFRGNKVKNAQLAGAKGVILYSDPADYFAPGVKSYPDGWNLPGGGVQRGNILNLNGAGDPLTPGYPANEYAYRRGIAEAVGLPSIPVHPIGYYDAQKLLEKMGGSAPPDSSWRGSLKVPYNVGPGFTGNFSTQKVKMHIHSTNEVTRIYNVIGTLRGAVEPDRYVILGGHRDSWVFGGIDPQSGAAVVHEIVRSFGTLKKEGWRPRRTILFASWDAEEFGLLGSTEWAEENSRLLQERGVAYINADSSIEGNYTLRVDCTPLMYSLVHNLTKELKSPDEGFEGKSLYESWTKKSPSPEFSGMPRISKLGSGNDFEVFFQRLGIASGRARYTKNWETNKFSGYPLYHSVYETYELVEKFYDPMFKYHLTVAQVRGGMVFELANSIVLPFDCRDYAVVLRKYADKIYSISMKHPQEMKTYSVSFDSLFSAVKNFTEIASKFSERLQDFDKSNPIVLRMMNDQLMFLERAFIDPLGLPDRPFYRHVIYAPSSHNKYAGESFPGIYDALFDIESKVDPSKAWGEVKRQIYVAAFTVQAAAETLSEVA

B1: 抗PSMA单链抗体1 (scFv, V domains shown)
VH: EVQLVESGGGVVQPGRSLRLSCAASGFTFSSYAMHWVRQAPGKGLEWVAVISYDGSNKYYADSVKGRFTISRDNSKNTLYLQMNSLRAEDTAVYYCARDYPLDDILTFPRVGTLDYWGQGTTVTVSS
VL: EIVLTQSPLSLPVTPGEPASISCRSSQSLLHSNGYNYLGWYLQKPGQSPQLLIYLGSNRASGVPDRFSGSGSGTDFTLKISRVEAEDVGVYYCMQALQTGFTFGPGTKVEIK
notes: Soluble scFv from a fully human phage library, made in E. coli TG1 and detected with APC anti 6XHis, so it carries a His tag; also called 抗体HTS0101; HTS0101
As for B1, the binding result is listed as “binds”.
